Assay results published in US20230302100.
Numbering of substitutions follows the chain as printed. Values joined by “and” are separate entries in the source; they are usually repeats but may differ in a detail not shown here. Equal values may be shown once.

Target: IVIg (Octagam)

B1: IdeS BX1001865 (protein)
chain: DSFSANQEIRYSEVTPYHVTSVWTKGVTPPANFTQGEDVFHAPYVANQGWYDITKTFNGKDDLLCGAATAGNMLHWWFDQNKDQIKRYLEEHPEKQKINFNGEQMFDVKEAIDTKNHQLDSKLFEYFKEKAFPYLSTKHLGVFPDHVIDMFINGYRLSLTNHGPTPVKEGSKDPRGGIFDAVFTRGDQSKLLTSRHDFKEKNLKEISDLIKKELTEGKALGLSHTYANVRINHVINLWGADFDSNGNLKAIYVTDSDSNASIGMKKYFVGVNSAGKVAISAKEIKEDNIGAQVLGLFTLSTGQDSWNQTN
B1 was tested, and the Conc. of enzyme for 1st IgG heavy chain cleavage (IgG to scIgG), SDS-PAGE was 1900 ng/mL, the Conc. of enzyme for 2nd IgG heavy chain cleavage (scIgG to F(ab')2), SDS-PAGE was 6000 ng/mL and 7500 ng/mL and the “IVIg cleavage, SDS-PAGE titration: enzyme concentration at which cleavage starts” value was “IdeS, which starts the cleavage at 0.9 ng/ml (lane 6) and has a dominating scIgG band at 1.9 ng/ml (lane 5)”. For the same protein, the “IVIg cleavage, SDS-PAGE titration: enzyme concentration giving a dominating scIgG band” value was “IdeS, which starts the cleavage at 0.9 ng/ml (lane 6) and has a dominating scIgG band at 1.9 ng/ml (lane 5)”, the “IVIg cleavage, SDS-PAGE titration: enzyme concentration giving mainly scIgG” value was “IdeS (BX1001865) has generated mainly scIgG (arrow 2) at a concentration of 1.9 ng/ml (lane 5)” and the “IVIg cleavage, SDS-PAGE titration: share of scIgG at 0.94 ng/ml enzyme” value was “the same concentration of IdeS results in less than 50% scIgG (lane 6)”.

B2: pCART204 (protein)
chain: MDDYQRNATEAYAKEVPHQITSVWTKGVTPPEQFRYNNEDVIHAPYLAHQGWYDITKAFDGKDNLLCGAATAGNMLHWWFDQNKTEIEAYLSKHPEKQKIIFNNQELFDLKAAIDTKDSQTNSQLFNYFRDKAFPNLSARQLGVMPDLVLDMFINGYYLNVFKTQSTDVNRPYQDKDKRGGIFDAVFTRGDQTTLLTARHDLKNKGLNDISTIIKQELTEGRALALSHTYANVSISHVINLWGADFNAEGNLEAIYVTDSDANASIGMKKYFVGINAHGHVAISAKKIEGENIGAQVLGLFTLSSGKDIWQKLSGGGHHHHHH
With B2 the “IVIg cleavage, SDS-PAGE titration: enzyme concentration giving an intense scIgG band” value was “Concentrations of 0.94 ng/ml (lane 6) for pCART202, pCART203 and pCART204 result in an intense band of scIgG (arrow 2), with most of the IgG single cleaved”.

B3: pCART144 (IdeZ with N terminal methionine and histidine tag) (protein)
chain: MDDYQRNATEAYAKEVPHQITSVWTKGVTPLTPEQFRYNNEDVIHAPYLAHQGWYDITKAFDGKDNLLCGAATAGNMLHWWFDQNKTEIEAYLSKHPEKQKIIFNNQELFDLKAAIDTKDSQTNSQLFNYFRDKAFPNLSARQLGVMPDLVLDMFINGYYLNVFKTQSTDVNRPYQDKDKRGGIFDAVFTRGDQTTLLTARHDLKNKGLNDISTIIKQELTEGRALALSHTYANVSISHVINLWGADFNAEGNLEAIYVTDSDANASIGMKKYFVGINAHGHVAISAKKIEGENIGAQVLGLFTLSSGKDIWQKLSGGGHHHHHH
In the case of B3, the “IVIg cleavage of the 2nd heavy chain, SDS-PAGE titration” value is reported as “pCART144 (IdeZ) is worse in cleavage of the 2nd heavy chain compared to IdeS (BX1001865 and pCART124)” and the “IVIg cleavage, SDS-PAGE titration” value is reported as “shows more effective cleavage at the 1st IgG heavy chain (lane 6) compared to IdeS (BX1001865 and pCART124)”.

B4: pCART229 (protein)
chain: MDDYQRNATEAYAKEVPHQITSVWTKGVTPPEQFTQGEDVIHAPYLAHQGWYDITKAFDGKDNLLCGAATAGNMLHWWFDQNKTEIEAYLSKHPEKQKIIFRNQELFDLKAAIDTKDSQTNSQLFNYFRDKAFPNLSARQLGVMPDLVLDMFINGYYLNVFKTQSTDVNRPYQDKDKRGGIFDAVFTRGNQTTLLTARHDLKNKGLNDISTIIKQELTEGRALALSHTYANVSISHVINLWGADFNAEGNLEAIYVTDSDANASIGMKKYFVGINAHGHVAISAKKIEGENIGAQVLGLFTLSSGKDIWQKLSGGGHHHHHH
B4 showed a Conc. of enzyme for 1st IgG heavy chain cleavage (IgG to scIgG), SDS-PAGE of 1900 ng/mL and a Conc. of enzyme for 2nd IgG heavy chain cleavage (scIgG to F(ab')2), SDS-PAGE of 7500 ng/mL.

B5: pCART206 (protein)
chain: B4 chain with F101I, R102N, N190D
For B5, the “IVIg cleavage in the presence of anti-IdeS neutralizing antibodies, SDS-PAGE titration” value was “A similar result was obtained for pCART206 (data not shown)”.

B6: pCART210 (protein)
chain: B4 chain with H48N, A111E, D114R, N126E, N135Y, N169K, Q215E, E219K, A276K, S313N
In the case of B6, the “IVIg cleavage of the 1st heavy chain, SDS-PAGE titration” value is reported as “pCART207, pCART208 and pCART210 all show increased efficacy compared to IdeS (BX1001865) in the cleavage of the 1st IgG heavy chain (lane 6)”.

B7: pCART208 (protein)
chain: B4 chain with F101I, N190D
With B7 the “IVIg cleavage of the 1st heavy chain, SDS-PAGE titration” value was “pCART207, pCART208 and pCART210 all show increased efficacy compared to IdeS (BX1001865) in the cleavage of the 1st IgG heavy chain (lane 6)”, the “IVIg cleavage of the 1st heavy chain, SDS-PAGE titration: fold efficacy over IdeS” value was “In the case of pCART208 this is approximately a 4 fold increase in cleavage efficacy of the 1st heavy chain” and the “IVIg cleavage of the 2nd heavy chain, SDS-PAGE titration: enzyme concentration giving a dominating F(ab')2 band” value was “pCART208 shows an improved cleavage efficacy, resulting in a dominating F(ab')2 band (arrow 3) at 1.9 ng/ml (lane 5), whereas IdeS (BX1001865) has only generated scIgG (arrow 2) at the same concentration”.

B8: pCART203 (protein)
chain: B4 chain with R102N, N190D
B8 was tested, and the “IVIg cleavage, SDS-PAGE titration” value was “pCART203 shows a capacity comparable to IdeS (BX1001865 and pCART124) at the 2nd cleavage site (lane 2, 3 and 4) and a higher cleavage efficacy than both IdeS and IdeZ (pCART144) at the 1st cleavage site (lane 7)”, the “IVIg cleavage, SDS-PAGE titration: enzyme concentration at which cleavage is seen” value was “Enzyme pCART203 demonstrates IgG cleavage at 0.5 ng/ml (lane 7)” and the “IVIg cleavage, SDS-PAGE titration: enzyme concentration giving an intense scIgG band” value was “Concentrations of 0.94 ng/ml (lane 6) for pCART202, pCART203 and pCART204 result in an intense band of scIgG (arrow 2), with most of the IgG single cleaved”. The “IVIg cleavage, SDS-PAGE titration: enzyme concentration giving mainly scIgG” value was “has generated mainly scIgG (arrow 2) at about 0.9 ng/ml (lane 6)” and the “IVIg cleavage, SDS-PAGE titration: fold efficacy over IdeS” value was “This corresponds to a 2 fold increased efficacy compared to IdeS”.

B9: pCART124 (IdeS with N terminal methionine and histidine tag) (protein)
chain: MDSFSANQEIRYSEVTPYHVTSVWTKGVTPPANFTQGEDVFHAPYVANQGWYDITKTFNGKDDLLCGAATAGNMLHWWFDQNKDQIKRYLEEHPEKQKINFNGEQMFDVKEAIDTKNHQLDSKLFEYFKEKAFPYLSTKHLGVFPDHVIDMFINGYRLSLTNHGPTPVKEGSKDPRGGIFDAVFTRGDQSKLLTSRHDFKEKNLKEISDLIKKELTEGKALGLSHTYANVRINHVINLWGADFDSNGNLKAIYVTDSDSNASIGMKKYFVGVNSAGKVAISAKEIKEDNIGAQVLGLFTLSTGQDSWNQTNGGGHHHHHH
In the case of B9, the Conc. of enzyme for 1st IgG heavy chain cleavage (IgG to scIgG), SDS-PAGE is reported as 1900 ng/mL, the Conc. of enzyme for 2nd IgG heavy chain cleavage (scIgG to F(ab')2), SDS-PAGE is reported as 6000 ng/mL and 7500 ng/mL and the “IVIg cleavage, SDS-PAGE titration: enzyme concentration at which cleavage starts” value is reported as “IdeS, which starts the cleavage at 0.9 ng/ml (lane 6) and has a dominating scIgG band at 1.9 ng/ml (lane 5)”. The “IVIg cleavage, SDS-PAGE titration: enzyme concentration giving a dominating scIgG band” value was “IdeS, which starts the cleavage at 0.9 ng/ml (lane 6) and has a dominating scIgG band at 1.9 ng/ml (lane 5)” and the “IVIg cleavage, SDS-PAGE titration: share of scIgG at 0.94 ng/ml enzyme” value was “the same concentration of IdeS results in less than 50% scIgG (lane 6)”.

B10: pCART202 (protein)
chain: MDDYQRNATEAYAKEVPHQITSVWTKGVTPLTPEQFTQGEDVIHAPYLAHQGWYDITKAFDGKDNLLCGAATAGNMLHWWFDQNKTEIEAYLSKHPEKQKIIFNNQELFDLKAAIDTKDSQTNSQLFNYFRDKAFPNLSARQLGVMPDLVLDMFINGYYLNVFKTQSTDVNRPYQDKDKRGGIFDAVFTRGDQTTLLTARHDLKNKGLNDISTIIKQELTEGRALALSHTYANVSISHVINLWGADFNAEGNLEAIYVTDSDANASIGMKKYFVGINAHGHVAISAKKIEGENIGAQVLGLFTLSSGKDIWQKLSGGGHHHHHH
With B10 the “IVIg cleavage, SDS-PAGE titration: enzyme concentration giving an intense scIgG band” value was “Concentrations of 0.94 ng/ml (lane 6) for pCART202, pCART203 and pCART204 result in an intense band of scIgG (arrow 2), with most of the IgG single cleaved”.
